Key:
[1] = target: SH2 domain of ABL1 kinase fused to the 434 phage cI repressor (UniProt P00519); test: two-hybrid
[2] = target: toxin-binding region from T. ni cadherin (TnCAD-FL) (Trichoplusia ni); test: BLI

Substance	fold transcriptional activation [1] [fold]	Kd [2] [µM]
wild-type HA4 monobody fused to RpoZ (designed binder)	> 200	–
wild-type Cry1Ac, trypsin-activated (from UniProt P05068 1-1178) (natural protein)	–	> 1000
